Experimental data published in patent US20260193342A1 (ZOETIS SERVICES, published 2026).
Changes are numbered by the printed parent chain. Names may count otherwise.

B1: mAb1, caninized anti-IL31 antibody 34D03, canine IgGA, WT (antibody)
heavy: EVQLVESGGDLVKPGGSLRLSCVASGFTFSNYGMSWVRQAPGKGLQWVATISYGGSYTYYPDNIKGRFTISRDNAKNTLYLQMNSLRAEDTAMYYCVRGYGYDTMDYWGQGTLVTVSSASTTAPSVFPLAPSCGSTSGSTVALACLVSGYFPEPVTVSWNSGSLTSGVHTFPSVLQSSGLHSLSSMVTVPSSRWPSETFTCNVVHPASNTKVDKPVFNECRCTDTPPCPVPEPLGGPSVLIFPPKPKDILRITRTPEVTCVVLDLGREDPEVQISWFVDGKEVHTAKTQSREQQFNGTYRVVSVLPIEHQDWLTGKEFKCRVNHIDLPSPIERTISKARGRAHKPSVYVLPPSPKELSSSDTVSITCLIKDFYPPDIDVEWQSNGQQEPERKHRMTPPQLDEDGSYFLYSKLSVDKSRWQQGDPFTCAVMHETLQNHYTDLSLSHSPGK
VL: EIVMTQSPASLSLSQEEKVTITCKASQSVSFAGTGLMHWYQQKPGQAPKLLIYRASNLEAGVPSRFSGSGSGTDFSFTISSLEPEDVAVYYCQQSREYPWTFGQGTKLEIK
notes: VH/VL: the caninized 34D03 entries of the listing; also called ID No. 1
B2: mAb1, caninized anti-IL31 antibody 34D03, canine IgGA, N434F (antibody)
chain 1: B1 heavy with N436F
chain 2: EIVMTQSPASLSLSQEEKVTITCKASQSVSFAGTGLMHWYQQKPGQAPKLLIYRASNLEAGVPSRFSGSGSGTDFSFTISSLEPEDVAVYYCQQSREYPWTFGQGTKLEIKRNDAQPAVYLFQPSPDQLHTGSASVVCLLNSFYPKDINVKWKVDGVIQDTGIQESVTEQDKDSTYSLSSTLTMSSTEYLSHELYSCEITHKSLPSTLIKSFQRSEC
B3: mAb1, caninized anti-IL31 antibody 34D03, canine IgGA, N434H (antibody)
chain 1: B1 heavy with N436H
chain 2: B2 chain 2
B4: mAb1, caninized anti-IL31 antibody 34D03, canine IgGA, N434R (antibody)
chain 1: B1 heavy with N436R
chain 2: B2 chain 2
B5: mAb2 of Table 4A, caninized anti-NGF antibody ZTS-841, canine IgGA, WT (antibody)
heavy: EVQLVESGGDLVKPGGSLRLSCVASGFTFSSHGMHWVRQSPGKGLQWVAVINSGGSSTYYTDAVKGRFTISRDNAKNTVYLQMNSLRAEDTAMYYCAKESVGGWEQLVGPHFDYWGQGTLVIVSSASTTAPSVFPLAPSCGSTSGSTVALACLVSGYFPEPVTVSWNSGSLTSGVHTFPSVLQSSGLHSLSSMVTVPSSRWPSETFTCNVVHPASNTKVDKPVFNECRCTDTPPCPVPEPLGGPSVLIFPPKPKDILRITRTPEVTCVVLDLGREDPEVQISWFVDGKEVHTAKTQSREQQFNGTYRVVSVLPIEHQDWLTGKEFKCRVNHIDLPSPIERTISKARGRAHKPSVYVLPPSPKELSSSDTVSITCLIKDFYPPDIDVEWQSNGQQEPERKHRMTPPQLDEDGSYFLYSKLSVDKSRWQQGDPFTCAVMHETLQNHYTDLSLSHSPGK
VL: QSVLTQPTSVSGSLGQRVTISCSGSTNNIGILGASWYQLFPGKAPKLLVYGNGNRPSGVPDRFSGADSGDSVTLTITGLQAEDEADYYCQSFDTTLGAHVFGGGTHLTVL
notes: also called ID No. 39
B6: mAb2 of Table 4A, caninized anti-NGF antibody ZTS-841, canine IgGA, N434F (antibody)
heavy: B5 heavy with N443F
VL: B5 VL
notes: also called ID No. 40
B7: mAb2 of Table 4A, caninized anti-NGF antibody ZTS-841, canine IgGA, N434H (antibody)
heavy: B5 heavy with N443H
VL: B5 VL
notes: also called ID No. 41

target: canine FcRn complex (FcRn-α subunit and β-microglobulin) (canine, UniProt A0A8I3PFR8 25-347, biotin on the BAP tag by BirA (Example 5 only)); assay: SPR (Biacore), biotinylated FcRn on SA chip, IgG flowed, pH 6, 15 C
Sequence (A0A8I3PFR8 entry or part of it, one chain of several): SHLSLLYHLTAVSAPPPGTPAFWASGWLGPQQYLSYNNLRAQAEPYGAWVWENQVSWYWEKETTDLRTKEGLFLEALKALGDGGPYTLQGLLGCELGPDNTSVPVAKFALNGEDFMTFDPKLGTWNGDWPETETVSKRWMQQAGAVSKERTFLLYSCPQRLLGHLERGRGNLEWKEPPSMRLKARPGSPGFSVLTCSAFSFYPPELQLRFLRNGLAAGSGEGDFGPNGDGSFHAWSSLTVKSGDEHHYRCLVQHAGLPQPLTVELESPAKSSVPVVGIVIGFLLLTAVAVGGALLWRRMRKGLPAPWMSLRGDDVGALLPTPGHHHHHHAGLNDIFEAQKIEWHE

| Kd | Binder |
| --- | --- |
| 79.9 nM | B1 |
| 12.7 nM | B2 |
| 12.3 nM | B3 |
| 43.8 nM | B4 |
| 95.5 nM | B5 |
| 9.81 nM | B6 |
| 10.4 nM | B7 |
